According to the supplement of paper PMC9112550, “Optimization of the antimicrobial peptide Bac7 by deep mutational scanning” (BMC Biology, 2022):

System: Escherichia coli TOP10
Assay: shrunken log2 fold change of peptide-encoding DNA abundance (4.5 h post-induction vs induction); higher = less antimicrobial activity (less host growth inhibition)
Settings: time post-induction: 4.5 h; library: site-saturation at positions 5, 18, 19, 20
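Further: peptides expressed intracellularly from a pBAD plasmid library in pooled LB shake-flask culture, induced with 0.3% L-arabinose, DNA abundance read by NGS, three biological replicates, DESeq2 with apeglm shrinkage.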

| Sequence | shrunken log2 fold change |
| --- | --- |
| RRIRKRPPRLPRPRPRPYCRPRP | -0.214 |
| RRIRHRPPRLPRPRPRPFVDPRP | 0.268 |
| RRIRVRPPRLPRPRPRPQNWPRP | 0.0353 |
| RRIRDRPPRLPRPRPRPSHMPRP | -0.0936 |
| RRIRMRPPRLPRPRPRPSEKPRP | 0.938 |
| RRIRGRPPRLPRPRPRPHNHPRP | -0.27 |
| RRIRRRPPRLPRPRPRPHEKPRP | 0.0358 |
| RRIRLRPPRLPRPRPRPSHFPRP | -0.0938 |
| RRIRMRPPRLPRPRPRPSHYPRP | -0.201 |
| RRIRCRPPRLPRPRPRPVVPPRP | -0.168 |
| RRIRDRPPRLPRPRPRPLCTPRP | 0.704 |
| RRIRFRPPRLPRPRPRPRYVPRP | -0.105 |
| RRIRERPPRLPRPRPRPRREPRP | 0.0467 |
| RRIRKRPPRLPRPRPRPDLRPRP | 0.103 |
| RRIRMRPPRLPRPRPRPWYKPRP | 0.00884 |
| RRIRPRPPRLPRPRPRPHCMPRP | -0.195 |
| RRIRLRPPRLPRPRPRPFIWPRP | 0.112 |
| RRIRNRPPRLPRPRPRPIHAPRP | -0.0866 |
| RRIRPRPPRLPRPRPRPHWNPRP | -0.447 |
| RRIRTRPPRLPRPRPRPGRNPRP | -0.0275 |
| RRIRNRPPRLPRPRPRPEMNPRP | 0.0511 |
| RRIRYRPPRLPRPRPRPLAKPRP | 0.19 |
| RRIRTRPPRLPRPRPRPQNKPRP | -0.664 |
| RRIRKRPPRLPRPRPRPIIDPRP | -0.139 |
| RRIRFRPPRLPRPRPRPEKAPRP | 0.0584 |

| Sequence | shrunken log2 fold change |
| --- | --- |
| RRIRFRPPRLPRPRPRPWKRPRP | -0.0222 |
| RRIRCRPPRLPRPRPRPCFIPRP | -0.488 |
| RRIRQRPPRLPRPRPRPAEQPRP | -0.000243 |
| RRIRKRPPRLPRPRPRPARVPRP | 0.857 |
| RRIRCRPPRLPRPRPRPTENPRP | 0.0623 |
| RRIRTRPPRLPRPRPRPIWMPRP | -0.101 |
| RRIRMRPPRLPRPRPRPDHDPRP | -0.0765 |
| RRIRTRPPRLPRPRPRPVLDPRP | -0.0579 |
| RRIRYRPPRLPRPRPRPWGHPRP | -0.275 |
| RRIRDRPPRLPRPRPRPQKYPRP | -0.432 |
| RRIRERPPRLPRPRPRPVWGPRP | 0.259 |
| RRIRPRPPRLPRPRPRPTWVPRP | 0.0694 |
| RRIRFRPPRLPRPRPRPGQEPRP | -0.0664 |
| RRIRFRPPRLPRPRPRPMFVPRP | 0.109 |
| RRIRARPPRLPRPRPRPWVWPRP | 0.596 |
| RRIRCRPPRLPRPRPRPECSPRP | 0.231 |
| RRIRKRPPRLPRPRPRPETLPRP | 0.0437 |
| RRIRARPPRLPRPRPRPVAEPRP | 0.871 |
| RRIRKRPPRLPRPRPRPMYSPRP | -0.11 |
| RRIRTRPPRLPRPRPRPNFGPRP | -0.0173 |
| RRIRGRPPRLPRPRPRPTQGPRP | 1.14 |
| RRIRARPPRLPRPRPRPQKIPRP | -0.108 |
| RRIRNRPPRLPRPRPRPDFSPRP | -0.0911 |
| RRIRNRPPRLPRPRPRPGTPPRP | 0.608 |
| RRIRQRPPRLPRPRPRPETEPRP | 0.0982 |

| Sequence | shrunken log2 fold change |
| --- | --- |
| RRIRQRPPRLPRPRPRPVLCPRP | -0.238 |
| RRIRMRPPRLPRPRPRPSVNPRP | -0.0473 |
| RRIRKRPPRLPRPRPRPWHDPRP | -0.406 |
| RRIRKRPPRLPRPRPRPLSGPRP | -0.0828 |
| RRIRYRPPRLPRPRPRPRFIPRP | -0.671 |
| RRIRERPPRLPRPRPRPAPVPRP | 0.055 |
| RRIRDRPPRLPRPRPRPSEKPRP | -0.0166 |
| RRIRSRPPRLPRPRPRPRYTPRP | -0.145 |
| RRIRIRPPRLPRPRPRPGHSPRP | 0.00697 |
| RRIRCRPPRLPRPRPRPCFAPRP | -0.162 |
| RRIRGRPPRLPRPRPRPPQGPRP | 0.812 |
| RRIRARPPRLPRPRPRPRECPRP | 0.804 |
| RRIRKRPPRLPRPRPRPIYHPRP | -0.472 |
| RRIRLRPPRLPRPRPRPLYDPRP | -0.924 |
| RRIRIRPPRLPRPRPRPVMVPRP | -0.066 |
| RRIRKRPPRLPRPRPRPQGSPRP | -0.0103 |
| RRIRERPPRLPRPRPRPTNGPRP | -0.163 |
| RRIRHRPPRLPRPRPRPAKVPRP | 0.00133 |
| RRIRERPPRLPRPRPRPMRVPRP | 0.501 |
| RRIRQRPPRLPRPRPRPSYDPRP | -0.251 |
| RRIRMRPPRLPRPRPRPPYGPRP | 0.294 |
| RRIRHRPPRLPRPRPRPLPWPRP | 0.108 |
| RRIRWRPPRLPRPRPRPQLHPRP | 0.123 |
| RRIRYRPPRLPRPRPRPYTWPRP | -0.571 |
| RRIRVRPPRLPRPRPRPGRDPRP | 0.175 |

| Sequence | shrunken log2 fold change |
| --- | --- |
| RRIRHRPPRLPRPRPRPLAFPRP | -0.2 |
| RRIRTRPPRLPRPRPRPPRVPRP | 0.334 |
| RRIRKRPPRLPRPRPRPMYCPRP | -0.233 |
| RRIRCRPPRLPRPRPRPNFIPRP | -0.616 |
| RRIRARPPRLPRPRPRPMCVPRP | 0.188 |
| RRIRWRPPRLPRPRPRPTPDPRP | 0.746 |
| RRIRSRPPRLPRPRPRPCNHPRP | -0.361 |
| RRIRKRPPRLPRPRPRPIYGPRP | -0.00172 |
| RRIRTRPPRLPRPRPRPFYTPRP | -0.373 |
| RRIRYRPPRLPRPRPRPKYLPRP | 0.00379 |
| RRIRMRPPRLPRPRPRPSCHPRP | -0.0523 |
| RRIRRRPPRLPRPRPRPDQYPRP | -0.126 |
| RRIRLRPPRLPRPRPRPRCDPRP | -0.0342 |
| RRIRARPPRLPRPRPRPLTPPRP | 0.548 |
| RRIRYRPPRLPRPRPRPAVAPRP | 0.159 |
| RRIRQRPPRLPRPRPRPTFYPRP | -0.116 |
| RRIRPRPPRLPRPRPRPTSKPRP | 0.188 |
| RRIRHRPPRLPRPRPRPTVRPRP | 0.165 |
| RRIRCRPPRLPRPRPRPFSRPRP | -0.332 |
| RRIRRRPPRLPRPRPRPYDVPRP | -0.0964 |
| RRIRMRPPRLPRPRPRPSVPPRP | -0.0568 |
| RRIRFRPPRLPRPRPRPNDVPRP | 0.0386 |
| RRIRKRPPRLPRPRPRPEIQPRP | -0.0762 |
| RRIRQRPPRLPRPRPRPRISPRP | -0.176 |
| RRIRIRPPRLPRPRPRPTQVPRP | 0.00035 |

| Sequence | shrunken log2 fold change |
| --- | --- |
| RRIRIRPPRLPRPRPRPWPTPRP | 0.331 |
| RRIRTRPPRLPRPRPRPMDQPRP | 0.0595 |
| RRIRRRPPRLPRPRPRPTYLPRP | -0.348 |
| RRIRDRPPRLPRPRPRPLLAPRP | 1.2 |
| RRIRMRPPRLPRPRPRPRMDPRP | 0.356 |
| RRIRGRPPRLPRPRPRPVAAPRP | 1.73 |
| RRIRGRPPRLPRPRPRPHKEPRP | -0.0695 |
| RRIRERPPRLPRPRPRPNQTPRP | -0.13 |
| RRIRQRPPRLPRPRPRPFHMPRP | -0.0421 |
| RRIRCRPPRLPRPRPRPVSWPRP | 0.49 |
| RRIRTRPPRLPRPRPRPMGAPRP | -0.0569 |
| RRIRARPPRLPRPRPRPWQTPRP | 0.0127 |
| RRIRDRPPRLPRPRPRPNAGPRP | 0.149 |
| RRIRFRPPRLPRPRPRPMDRPRP | 0.0616 |
| RRIRGRPPRLPRPRPRPNKDPRP | 0.179 |
| RRIRMRPPRLPRPRPRPSIPPRP | -0.316 |
| RRIRLRPPRLPRPRPRPVMQPRP | 0.00383 |
| RRIRMRPPRLPRPRPRPWAMPRP | 0.0684 |
| RRIRNRPPRLPRPRPRPGSTPRP | -0.145 |
| RRIRRRPPRLPRPRPRPWCVPRP | -0.032 |
| RRIRKRPPRLPRPRPRPQPKPRP | 0.19 |
| RRIRERPPRLPRPRPRPAIFPRP | -0.12 |
| RRIRERPPRLPRPRPRPVKEPRP | -0.0153 |
| RRIRNRPPRLPRPRPRPPNKPRP | 0.125 |
| RRIRPRPPRLPRPRPRPHDAPRP | 0.0201 |
